In this test the target is T1, Cx47, human (human) (UniProt Q5T442).
T1 sequence: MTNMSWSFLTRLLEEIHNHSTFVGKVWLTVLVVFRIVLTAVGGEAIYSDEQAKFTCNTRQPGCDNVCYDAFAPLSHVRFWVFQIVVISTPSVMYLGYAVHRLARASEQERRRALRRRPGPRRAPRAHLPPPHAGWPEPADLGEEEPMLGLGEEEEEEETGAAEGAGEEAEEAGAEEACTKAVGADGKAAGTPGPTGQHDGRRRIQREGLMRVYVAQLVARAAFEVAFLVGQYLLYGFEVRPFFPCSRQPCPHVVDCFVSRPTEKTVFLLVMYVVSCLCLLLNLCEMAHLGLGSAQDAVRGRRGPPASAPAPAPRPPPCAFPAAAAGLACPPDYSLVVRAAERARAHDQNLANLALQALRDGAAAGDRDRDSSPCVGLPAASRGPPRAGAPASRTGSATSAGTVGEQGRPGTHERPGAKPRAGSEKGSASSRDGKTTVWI

B1: Cx47, human (natural protein)
chain: T1 sequence
As for B1, the median junctional conductance (Gj), dual whole-cell patch clamp of DKO HEK293 cell pairs, homotypic; IQR 0.08–7.68; 20 pairs came to 1.3 nS.

The values above are taken from paper PMC13269782.
